Experimental data reported in the supplement of paper PMC5998384.

Tests used:
HeLa Kyoto [1] = experiment: solubility in G1/S (NP-40 vs SDS abundance) (log2 ratio); higher = more soluble; settings: cell cycle stage: G1/S
HeLa Kyoto [2] = experiment: melting temperature (median over replicates), in situ; higher = more thermally stable
HeLa Kyoto [3] = experiment: solubility change mitosis vs G1/S (difference of NP-40 vs SDS log2 ratios) (log2 ratio difference); higher = more soluble in mitosis
HeLa Kyoto [4] = experiment: thermal stability score vs G1/S (z-score of summed log2 fold changes over temperatures); higher = more thermally stable than in G1/S
[5] = cell cycle stage: early G1 (4.5 h after nocodazole release)
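Throughout, for melting temperature (median over replicates), in situ: HeLa Kyoto cells synchronized by double thymidine or nocodazole block, proteins quantified by TMT10plex mass spectrometry, three independent biological replicates.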
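Throughout, for solubility change mitosis vs G1/S (difference of NP-40 vs SDS log2 ratios): synchronized HeLa Kyoto cells (double thymidine block for G1/S, nocodazole release for mitosis), protein amounts in NP-40 versus SDS lysates quantified by mass spectrometry, three biological replicates.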
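Throughout, for solubility in G1/S (NP-40 vs SDS abundance): HeLa Kyoto cells arrested at G1/S by double thymidine block, proteins quantified by TMT10plex mass spectrometry in mild NP-40 versus SDS extracts, three biological replicates.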
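Throughout, for thermal stability score vs G1/S (z-score of summed log2 fold changes over temperatures): synchronized HeLa Kyoto cells, proteins quantified by TMT10plex mass spectrometry, three biological replicates, mitosis taken 0.5 h after nocodazole release, G1/S directly after double thymidine block.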

Row | Sequence | solubility in G1/S (log2) (HeLa Kyoto [1]) | melting temperature (HeLa Kyoto [2]; cell cycle stage: G1/S) [°C] | melting temperature (HeLa Kyoto [2]; cell cycle stage: mitosis) [°C] | solubility change mitosis (log2) (HeLa Kyoto [3]) | thermal stability score (HeLa Kyoto [4]; [5]) | thermal stability score (HeLa Kyoto [4]; cell cycle stage: mitosis)
1 | MAERRRHKKRIQEVGEPSKEEKAVAKYLRFNCPTKSTNMMGHRVDYFIASKAVDCLLDSKWAKAKKGEEALFTTRESVVDYCNRLLKKQFFHRALKVMKMKYDKDIKKEKDKGKAESGKEEDKKSKKENIKDEKTKKEKEKKKDGEKEESKKEETPGTPKKKETKKKFKLEPHDDQVFLDGNEVYVWIYDPVHFKTFVMGLILVIAVIAATLFPLWPAEMRVGVYYLSVGAGCFVASILLLAVARCILFLIIWLITGGRHHFWFLPNLTADVGFIDSFRPLYTHEYKGPKADLKKDEKSETKKQQKSDSEEKSDSEKKEDEEGKVGPGNHGTEGSGGERHSDTDSDRREDDRSQHSSGNGNDFEMITKEELEQQTDGDCEEDEEEENDGETPKSSHEKS [SEC62] | -0.134 | 55.5 | 55.4 | 0.0142 | -4.12 | -4.37
2 | MAESPTEEAATAGAGAAGPGASSVAGVVGVSGSGGGFGPPFLPDVWAAAAAAGGAGGPGSGLAPLPGLPPSAAAHGAALLSHWDPTLSSDWDGERTAPQCLLRIKRDIMSIYKEPPPGMFVVPDTVDMTKIHALITGPFDTPYEGGFFLFVFRCPPDYPIHPPRVKLMTTGNNTVRFNPNFYRNGKVCLSILGTWTGPAWSPAQSISSVLISIQSLMTENPYHNEPGFEQERHPGDSKNYNECIRHETIRVAVCDMMEGKCPCPEPLRGVMEKSFLEYYDFYEVACKDRLHLQGQTMQDPFGEKRGHFDYQSLLMRLGLIRQKVLERLHNENAEMDSDSSSSGTETDLHGSLRV [UBE2Z] | 0.403 | 52.7 | 52.8 | -0.169 | -0.171 | -0.398
3 | MAETSEEVAVLVQRVVKDITNAFRRNPHIDEIGLIPCPEARYNRSPIVLVENKLGVESWCVKFLLPYVHNKLLLYRTRKQWLNRDELIDVTCTLLLLNPDFTTAWNVRKELILSGTLNPIKDLHLGKLALTKFPKSPETWIHRRWVLQQLIQETSLPSFVTKGNLGTIPTERAQRLIQEEMEVCGEAAGRYPSNYNAWSHRIWVLQHLAKLDVKILLDELSSTKHWASMHVSDHSGFHYRQFLLKSLISQTVIDSSVMEQNPLRSEPALVPPKDEEAAVSTEEPRINLPHLLEEEVEFSTDLIDSYPGHETLWCHRRHIFYLQHHLNAGSQLSQAMEVDGLNDSSKQGYSQETKRLKRTPVPDSLGLEMEHRFIDQVLSTCRNVEQARFASAYRKWLVTLSQ [PTAR1] | 0.0716 | 53 | 52.1 | -0.125 | -1.63 | -2.24
4 | MAFLKLRDQPSLVQAIFNGDPDEVRALIFKKEDVNFQDNEKRTPLHAAAYLGDAEIIELLILSGARVNAKDSKWLTPLHRAVASCSEEAVQVLLKHSADVNARDKNWQTPLHIAAANKAVKCAEALVPLLSNVNVSDRAGRTALHHAAFSGHGEMVKLLLSRGANINAFDKKDRRAIHWAAYMGHIEVVKLLVSHGAEVTCKDKKSYTPLHAAASSGMISVVKYLLDLGVDMNEPNAYGNTPLHVACYNGQDVVVNELIDCGAIVNQKNEKGFTPLHFAAASTHGALCLELLVGNGADVNMKSKDGKTPLHMTALHGRFSRSQTIIQSGAVIDCEDKNGNTPLHIAARYGHELLINTLITSGADTAKRGIHGMFPLHLAALSGFSDCCRKLLSSGFDIDTPDDFGRTCLHAAAAGGNLECLNLLLNTGADFNKKDKFGRSPLHYAAANCNYQCLFALVGSGASVNDLDERGCTPLHYAATSDTDGKCLEYLLRNDANPGIRDKQGYNAVHYSAAYGHRLCLQLIASETPLDVLMETSGTDMLSDSDNRATISPLHLAAYHGHHQALEVLVQSLLDLDVRNSSGRTPLDLAAFKGHVECVDVLINQGASILVKDYILKRTPIHAAATNGHSECLRLLIGNAEPQNAVDIQDGNGQTPLMLSVLNGHTDCVYSLLNKGANVDAKDKWGRTALHRGAVTGHEECVDALLQHGAKCLLRDSRGRTPIHLSAACGHIGVLGALLQSAASMDANPATADNHGYTALHWACYNGHETCVELLLEQEVFQKTEGNAFSPLHCAVINDNEGAAEMLIDTLGASIVNATDSKGRTPLHAAAFTDHVECLQLLLSHNAQVNSVDSTGKTPLMMAAENGQTNTVEMLVSSASAELTLQDNSKNTALHLACSKGHETSALLILEKITDRNLINATNAALQTPLHVAARNGLTMVVQELLGKGASVLAVDENGYTPALACAPNKDVADCLALILATMMPVSSSSPLSSLTFNAINRYTNTSKTVSFEALPIMRNEPSSYCSFNNIGGEQEYLYTDVDELNDSDSETY [ANKRD28] | -0.288 | 51.2 | 50.8 | -0.133 | -0.536 | -1.19
5 | MAFPHRPDAPELPDFSMLKRLARDQLIYLLEQLPGKKDLFIEADLMSPLDRIANVSILKQHEVDKLYKVENKPALSSNEQLCFLVRPRIKNMRYIASLVNADKLAGRTRKYKVIFSPQKFYACEMVLEEEGIYGDVSCDEWAFSLLPLDVDLLSMELPEFFRDYFLEGDQRWINTVAQALHLLSTLYGPFPNCYGIGRCAKMAYELWRNLEEEEDGETKGRRPEIGHIFLLDRDVDFVTALCSQVVYEGLVDDTFRIKCGSVDFGPEVTSSDKSLKVLLNAEDKVFNEIRNEHFSNVFGFLSQKARNLQAQYDRRRGMDIKQMKNFVSQELKGLKQEHRLLSLHIGACESIMKKKTKQDFQELIKTEHALLEGFNIRESTSYIEEHIDRQVSPIESLRLMCLLSITENGLIPKDYRSLKTQYLQSYGPEHLLTFSNLRRAGLLTEQAPGDTLTAVESKVSKLVTDKAAGKITDAFSSLAKRSNFRAISKKLNLIPRVDGEYDLKVPRDMAYVFGGAYVPLSCRIIEQVLERRSWQGLDEVVRLLNCSDFAFTDMTKEDKASSESLRLILVVFLGGCTFSEISALRFLGREKGYRFIFLTTAVTNSARLMEAMSEVKA [VPS33B] | -0.121 | 49.9 | 49.4 | -0.189 | 0.623 | 0.549
6 | MAFQKAVKGTILVGGGALATVLGLSQFAHYRRKQMNLAYVKAADCISEPVNREPPSREAQLLTLQNTSEFDILVIGGGATGSGCALDAVTRGLKTALVERDDFSSGTSSRSTKLIHGGVRYLQKAIMKLDIEQYRMVKEALHERANLLEIAPHLSAPLPIMLPVYKWWQLPYYWVGIKLYDLVAGSNCLKSSYVLSKSRALEHFPMLQKDKLVGAIVYYDGQHNDARMNLAIALTAARYGAATANYMEVVSLLKKTDPQTGKVRVSGARCKDVLTGQEFDVRAKCVINATGPFTDSVRKMDDKDAAAICQPSAGVHIVMPGYYSPESMGLLDPATSDGRVIFFLPWQKMTIAGTTDTPTDVTHHPIPSEEDINFILNEVRNYLSCDVEVRRGDVLAAWSGIRPLVTDPKSADTQSISRNHVVDISESGLITIAGGKWTTYRSMAEDTINAAVKTHNLKAGPSRTVGLFLQGGKDWSPTLYIRLVQDYGLESEVAQHLAATYGDKAFEVAKMASVTGKRWPIVGVRLVSEFPYIEAEVKYGIKEYACTAVDMISRRTRLAFLNVQAAEEALPRIVELMGRELNWDDYKKQEQLETARKFLYYEMGYKSRSEQLTDRSEISLLPSDIDRYKKRFHKFDADQKGFITIVDVQRVLESINVQMDENTLHEILNEVDLNKNGQVELNEFLQLMSAIQKGRVSGSRLAILMKTAEENLDRRVPIPVDRSCGGL [GPD2] | 0.104 | 59.2 | 59 | -0.0945 | -2.62 | -2.93
